The values below come from paper PMC2288870.

Test [1] deals with 50-kD chymotryptic fragment of thrombospondin (human). The test can be described thus: non-reducing SDS-PAGE.
The target of test [2] is 70-kD chymotryptic fragment of thrombospondin (human). The test can be described thus: non-reducing SDS-PAGE.

Usually stoichiometry N stands for a count of units in the complex or per binding partner. “50-kD chymotryptic fragment of thrombospondin (domain or fragment)”: the stoichiometry N in test [1] came out at 3.
Take “70-kD chymotryptic fragment of thrombospondin (domain or fragment)”: in test [2], the stoichiometry N amounted to 3.
